According to patent US20240150449A1 (MABYLON, published 2024):

Target: T1, recombinant non-phosphorylated full-length TDP-43 (human, UniProt Q13148 1-414)
T1 construct: Bought recombinant protein; also called non-pathological full-length TDP-43; recombinantly expressed full-length TDP-43 (OriGene Technologies)
Test: ELISA, antigen coated
Description: Plates were washed with PBS-Tween 0.05% and blocked 1 h at room temperature with PBS containing 5% Milk (Rapilait, Migros, Zurich, Switzerland) or 2% bovine serum albumin (BSA, Sigma-Aldrich Chemie GmbH, Buchs, Switzerland). Patient sera, B cell conditioned medium, or recombinant antibody preparations were incubated for 2 h at room temperature. Binding of human IgG to the antigen of interest was determined using a HRP-conjugated anti human antibody (anti-IgG-HRP from Jackson ImmunoResearch, West Grove, PA, USA) followed by measurement of the HRP activity using a tetramethylbenzidine substrate solution (TMB, Sigma-Aldrich Chemie GmbH, Buchs, Switzerland).

T1 sequence (Q13148 whole entry): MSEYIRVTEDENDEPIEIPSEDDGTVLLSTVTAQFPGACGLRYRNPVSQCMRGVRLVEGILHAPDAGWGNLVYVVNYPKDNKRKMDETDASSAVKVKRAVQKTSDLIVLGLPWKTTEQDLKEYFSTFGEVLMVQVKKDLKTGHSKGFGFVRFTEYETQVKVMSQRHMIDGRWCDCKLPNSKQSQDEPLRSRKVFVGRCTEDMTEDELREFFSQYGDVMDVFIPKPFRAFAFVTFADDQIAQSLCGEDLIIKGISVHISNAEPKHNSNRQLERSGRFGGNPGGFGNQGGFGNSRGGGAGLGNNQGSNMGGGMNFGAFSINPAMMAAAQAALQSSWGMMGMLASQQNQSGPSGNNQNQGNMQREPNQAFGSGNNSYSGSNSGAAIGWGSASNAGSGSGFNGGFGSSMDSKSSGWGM

B1: antibody 15D7 (human IgG) (antibody, V domains shown)
VH: EVQLVESGGGLVQPGGSLRLSCSASGFTFGNYAMHWVRQAPGKGLEYVSAMSSNGGSTYYGDSVKGRFTISRDNSKNTLYLQMSSLRAEDTAVYYCVTRGRKAPSLYYFDCWGPGTLVTVSS
VL: not shown
notes: Recombinant human IgG
binding result: no binding
